PMC8256705, “Putative hexameric glycosyltransferase functional unit revealed by the crystal structure of Acinetobacter baumannii MurG” (IUCrJ, 2021)

Legend:
[1] = target: the molecule itself; assay: SEC-MALS; dimer-sized SEC peak; Superdex 200 10/300, 20 mM Tris-HCl pH 8.0, 150 mM NaCl, 0.4 ml/min, 25°C
[2] = target: the molecule itself; assay: SEC-MALS; highly oligomeric SEC peak; Superdex 200 10/300, 20 mM Tris-HCl pH 8.0, 150 mM NaCl, 0.4 ml/min, 25°C

B1: MurG from Acinetobacter baumannii (abMurG), full length, wild type (enzyme, UniProt A3M9Y1 1-365, looked up)
chain: MTDSQQSKPKHVMMMAAGTGGHVFPALAVAKQLQQQGCQVSWLATPTGMENRLLKDQNIPIYQIDIQGVRGNGVIRKLAAPFKILKATFSAMRYMKQLKVDAVAGFGGYVAGPGGLAARLLGIPVLIHEQNAVAGFTNAQLSRVAKVVCEAFPNTFPASEKVVTTGNPVRREITDILSPKWRYDEREQADKPLNILIVGGSLGAKALNERLPPALKQLEVPLNIFHQCGQQQVEATQALYADAPANLTIQVLPFIEDMAKAYSEADLIICRAGALTVTEVATAGVAAVFVPLPIAVDDHQTANAKFLADIGAAKICQQSTMTPEVLNQLFTTLMNRQLLTEMAVKARQHAQPNATQHVVDLIQKM
notes: MurG glycosyltransferase of Acinetobacter baumannii, full length, amino acids Met1-Met365 (365 amino acids); Theoretical mass with the C-terminal His tag is printed as 39.4 kDa; Found as a dimer and as a hexamer in solution; only the large-size SEC peak crystallized; also called wild-type abMurG; source: E. coli BL21 (DE3), purified (nickel-nitrilotriacetic acid resin, SEC); not shown: His tag, …
- stoichiometry N [1]: 2
- stoichiometry N [2]: 6
